Assay results as given in US20160046944, “APTAMER TO IL-17 AND USE THEREOF” (THE UNIVERSITY OF TOKYO, published 2016).

T1: IL-17 (Homo sapiens, UniProt Q16552 Q16552:24-155)
T1 sequence: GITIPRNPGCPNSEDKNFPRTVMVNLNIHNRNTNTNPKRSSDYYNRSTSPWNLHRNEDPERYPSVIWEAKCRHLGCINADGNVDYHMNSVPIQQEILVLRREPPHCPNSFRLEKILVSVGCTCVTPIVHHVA


How the values were obtained:
IL-17 [1] = target: T1, IL-17; test: SPR; IL-17R-Fc on chip; conditions: chain copies: 2
Protocol: Whether aptamers shown by aptamer Nos. 1-49 inhibit the binding of IL-17 and IL-17 receptor was evaluated by the surface plasmon resonance method.
For the measurement, BIAcore2000 manufactured by BIAcore was used. […] As an analyte, IL-17 (100 or 150 nM) and an aptamer (50 or 100 nM) shown by aptamer No. 1-49 were mixed, maintained for 15 min and after that the mixture was flown.

IL-17 [2] = target: T1, IL-17; test: SPR; IL-17 150 nM, aptamer 12.5 or 50 nM; conditions: chain copies: 2
Protocol: Whether the synthesized aptamers inhibit the binding of IL-17 and IL-17 receptor was evaluated by the surface plasmon resonance method.
For the measurement, BIAcore T100 manufactured by GE Healthcare Bio Sciences was used. […] As an analyte, IL-17 (150 nM) and each aptamer (12.5 or 50 nM) shown by Table 3 were mixed, maintained for 15 min and after that the mixture was flown.

| Binder | binding signal (IL-17 [1]) | binding signal (IL-17 [2]) |
| --- | --- | --- |
| GGGUAGCCGGAGGAGTCAGTAAUCGGTACCC (mixed, 2'-OMe (M), 2'-F (F), PS (S) as marked; uppercase DNA [2'-OMe: 1,2,3,4,7,8,10,13,14,21,23,24,25,26,28,29,30,31; 2'-F: 17; PS: 6]) [aptamer No. 27] | 13.3 % IL-17/IL-17R binding remaining | – |
| GGGUAGCCGGAGGAGUCAGUAAUCGGUACCC (ssRNA, 2'-OMe (M), 2'-F (F) as marked [2'-OMe: 1-5,7,8,10,13,14,21-31; 2'-F: 11,16,17,18,20]) [aptamer No. 79] | – | 28.2 % IL-17/IL-17R binding remaining |
| GGGUAGCCGGAGGAGTCAGTAAUCGGTACCC (mixed, 2'-OMe (M), 2'-F (F), PS (S) as marked; uppercase DNA [2'-OMe: 1,2,3,4,7,8,10,13,14,23,24,25,26,29,30,31; 2'-F: 17; PS: 6]) [aptamer No. 31] | 16.2 % IL-17/IL-17R binding remaining | – |
| GGGUAGCCGGAGGAGUCAGUAAUCGGUACCC (mixed, 2'-OMe (M), 2'-F (F), PS (S) as marked; uppercase DNA [2'-OMe: 1-5,7,8,10,11,13,14,23-26,28-31; 2'-F: 16-18,20,27; PS: 6,15,19; DNA: 9]) [aptamer No. 94] | – | 29.3 % IL-17/IL-17R binding remaining |
| GGGUAGCCGGAGGAGTCAGTAAUCGGUACCC (mixed, 2'-OMe (M), 2'-F (F), PS (S) as marked; uppercase DNA [2'-OMe: 1-4,7,8,10,13,14,21-26,28; 2'-F: 11,17,18,27; PS: 6,15]) [aptamer No. 52] | – | 27.6 % IL-17/IL-17R binding remaining |
| GGGUAGCCGGAGGAGTCAGTAAUCGGUACCC (mixed, 2'-OMe (M), 2'-F (F), PS (S) as marked; uppercase DNA [2'-OMe: 1-5,7,8,10,13,14,21-31; 2'-F: 11,17,18; PS: 6]) [aptamer No. 65] | – | 20.3 % IL-17/IL-17R binding remaining |
| GGGUAGCCGGAGGAGTCAGTAAUCGGUACCC (mixed, 2'-OMe (M), 2'-F (F), PS (S) as marked; uppercase DNA [2'-OMe: 1,2,3,4,5,7,8,10,13,14,17,21,22,23,24,25,26,28,29,30,31; 2'-F: 11,18,27; PS: 6,15,19]) [aptamer No. 64] | – | 29.3 % IL-17/IL-17R binding remaining |
| GGGUAGCCGGAGGAGUCAGUAAUCGGUACCC (mixed, 2'-OMe (M), 2'-F (F), PS (S) as marked; uppercase DNA [2'-OMe: 1-5,7,8,10,11,13,14,21-26,28-31; 2'-F: 16,17,18,20,27; PS: 6,15,19; DNA: 9]) [aptamer No. 85] | – | 27.8 % IL-17/IL-17R binding remaining |
| GGGUAGCCGGAGGAGTCAGTAAUCGGUACCC (mixed, 2'-OMe (M), 2'-F (F), PS (S) as marked; uppercase DNA [2'-OMe: 1-5,7,8,10,11,13,14,21-31; 2'-F: 17,18; PS: 6,15,19; DNA: 9,16,20]) [aptamer No. 82] | – | 5.28 % IL-17/IL-17R binding remaining |
| GGGUAGCCGGAGGAGTCAGTAAUCGGTACCC (mixed, 2'-OMe (M), 2'-F (F) as marked; uppercase DNA [2'-OMe: 1,2,3,4,7,8,10,13,14,23,24,25,26,28,29,30,31; 2'-F: 17]) [aptamer No. 28] | 13.2 % IL-17/IL-17R binding remaining | – |
| GGGUAGCCGGAGGAGTCAGTAAUCGGUACCC (mixed, 2'-OMe (M), 2'-F (F) as marked; uppercase DNA [2'-OMe: 1-5,7,8,10,13,14,21-26,28-31; 2'-F: 11,17,18,27]) [aptamer No. 75] | – | 21.6 % IL-17/IL-17R binding remaining |
| GGGUAGCCGGAGGAGUCAGUAAUCGGUACCC (mixed, 2'-OMe (M), 2'-F (F), PS (S) as marked; uppercase DNA [2'-OMe: 1-5,7,8,10,11,13,14,21,23-26,28-31; 2'-F: 16-18,20,27; PS: 6,15,19; DNA: 9]) [aptamer No. 93] | – | 30.6 % IL-17/IL-17R binding remaining |
| GGGUAGCCGGAGGAGTCAGTAAUCGGUACCC (mixed, 2'-OMe (M), 2'-F (F), PS (S) as marked; uppercase DNA [2'-OMe: 1-5,7,8,10,13,14,21-31; 2'-F: 11,17,18; PS: 6,15,19]) [aptamer No. 66] | – | 28.7 % IL-17/IL-17R binding remaining |
| GGGUAGCCGGAGGAGTCAGTAAUCGGUACCC (mixed, 2'-OMe (M), 2'-F (F) as marked; uppercase DNA [2'-OMe: 1-4,7,8,10,13,14,23-26,28; 2'-F: 17,27]) [aptamer No. 48] | 19.2 % IL-17/IL-17R binding remaining | – |
| GGGUAGCCGGAGGAGTCAGTAAUCGGUACCC (mixed, 2'-OMe (M), 2'-F (F), PS (S) as marked; uppercase DNA [2'-OMe: 1-5,7,8,10,11,13,14,17,21-31; 2'-F: 18; PS: 6,15,19; DNA: 9,16,20]) [aptamer No. 81] | – | 34.3 % IL-17/IL-17R binding remaining |
| GGGUAGCCGGAGGAGTCAGTGAUCGGUACCC (mixed, 2'-OMe (M), 2'-F (F), PS (S) as marked; uppercase DNA [2'-OMe: 1-5,7,8,10,11,13,14,17,22-31; 2'-F: 18; PS: 6,15,19; DNA: 9,16,20]) [aptamer No. 87] | – | 32.4 % IL-17/IL-17R binding remaining |
| GGGUAGCCGGAGGAGTCAGTAAUCGGUACCC (mixed, 2'-OMe (M), 2'-F (F), PS (S) as marked; uppercase DNA [2'-OMe: 1-5,7,8,10,11,13,14,17,21,23-31; 2'-F: 18; PS: 6,15,19; DNA: 9,16,20]) [aptamer No. 90] | – | 41.2 % IL-17/IL-17R binding remaining |
| GGGUAGCCGGAGGAGUCAGUAAUCGGUACCC (mixed, 2'-OMe (M), 2'-F (F) as marked; uppercase DNA [2'-OMe: 1-5,7,8,10,13,14,21-26,29-31; 2'-F: 11,16,17,18,20,27; DNA: 28]) [aptamer No. 77] | – | 23.9 % IL-17/IL-17R binding remaining |
| GGGUAGCCGGAGGAGTCAGTAAUCGGTACCC (mixed, 2'-OMe (M), 2'-F (F) as marked; uppercase DNA [2'-OMe: 1-4,7,8,10,13,14,22-26,28-31; 2'-F: 17]) [aptamer No. 39] | 14.8 % IL-17/IL-17R binding remaining | – |
| GGGUAGCCGGAGGAGTCAGTAAUCGGUACCC (mixed, 2'-OMe (M), 2'-F (F), PS (S) as marked; uppercase DNA [2'-OMe: 1-5,7,8,10,11,13,14,17,22-31; 2'-F: 18; PS: 6,15,19; DNA: 9,16,20]) [aptamer No. 89] | – | 35.1 % IL-17/IL-17R binding remaining |
| GGGUAGCCGGAGGAGTCAGTAAUCGGUACCC (mixed, 2'-OMe (M), 2'-F (F) as marked; uppercase DNA [2'-OMe: 1-5,7,8,10,13,14,21-31; 2'-F: 11,17,18; DNA: 9,16,20]) [aptamer No. 78] | – | 23.3 % IL-17/IL-17R binding remaining |
| GGGUAGCCGGAGGAGTCAGTAAUCGGTACCC (mixed, 2'-OMe (M), 2'-F (F) as marked; uppercase DNA; (NI) printed, likely (M) [2'-OMe: 1,2,3,4,7,10,13,14,23,24,25,26,28,29,30,31; 2'-F: 17; 8 printed (NI), likely 2'-OMe]) [aptamer No. 37] | 15.5 % IL-17/IL-17R binding remaining | – |
| GGGUAGCCGGAGGAGUCAGUAAUCGGUACCC (mixed, 2'-OMe (M), 2'-F (F), PS (S) as marked; uppercase DNA [2'-OMe: 1-5,7,8,10,11,13,14,22-26,28-31; 2'-F: 16-18,20,27; PS: 6,15,19; DNA: 9]) [aptamer No. 92] | – | 31.6 % IL-17/IL-17R binding remaining |
